In assay [1] the target is T1, recombinant histidine-tagged human E-selectin (Sino Biologicals; 13025-H08H) (human, UniProt P16581 22-556).
T1 construct: also called recombinant human E-selectin; soluble recombinant human E-selectin
T1 sequence (looked up): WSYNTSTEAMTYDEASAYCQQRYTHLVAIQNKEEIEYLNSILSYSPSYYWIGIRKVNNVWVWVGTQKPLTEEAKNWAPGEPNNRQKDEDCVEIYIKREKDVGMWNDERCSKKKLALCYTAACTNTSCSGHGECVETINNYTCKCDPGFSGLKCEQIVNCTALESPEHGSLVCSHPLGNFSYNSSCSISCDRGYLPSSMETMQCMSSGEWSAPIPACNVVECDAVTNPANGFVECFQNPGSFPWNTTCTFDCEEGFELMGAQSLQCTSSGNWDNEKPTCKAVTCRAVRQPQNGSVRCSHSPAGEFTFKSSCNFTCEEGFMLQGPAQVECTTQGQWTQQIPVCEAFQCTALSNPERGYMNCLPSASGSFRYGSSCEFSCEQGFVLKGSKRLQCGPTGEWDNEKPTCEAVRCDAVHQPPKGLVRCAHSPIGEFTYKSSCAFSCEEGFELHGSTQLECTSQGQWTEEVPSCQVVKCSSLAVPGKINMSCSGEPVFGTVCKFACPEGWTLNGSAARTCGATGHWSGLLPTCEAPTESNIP
In words: direct binding ELISA, soluble recombinant protein. The procedure:
(§1) Recombinant histidine tagged human P-, E- or L-selectin (Sino Biologicals), mouse E-selectin (Sino Biologicals), rat E-selectin (Sino Biologicals) and Cynomolgus monkey E-selectin (Sino Biologicals) stock solutions were prepared to a final concentration of 1 μg/mL in phosphate buffered saline without calcium and magnesium. Controls included an L-selectin directed antibody (BioLegend; 304811) or P-selectin directed antibody or a negative control IgG. One hundred μL per well of the diluted recombinant selectin proteins were added into a Ni-NTA HisSorb 96 well plate (Qiagen; 35061). Plates were incubated on an orbital shaker at room temperature for 2 hours. Following the incubation, the plates were washed 3 times with 200 μL of wash buffer (50 mM TRIS [trisaminomethane]; 150 mM sodium chloride; 0.05% polysorbate 20, pH 7.4). […] Anti L-selectin and anti-rat-E-selectin antibodies were detected using 1 to 25000 dilution of Peroxidase-conjugated AffiniPure Goat Anti-Mouse IgG (H+L); (Jackson ImnnunoResearch Lab).
(§2) Plates were washed and 100 μL per well of 1-Step Ultra TMB substrate (Thermo Scientific) was added and incubated for 5 minutes at room temperature. Reactions were stopped with 100 μL of 2 M sulfuric acid and absorbance read at 450 nm (Spectramax M5e).
In general terms: ELISA stands for enzyme-linked immunosorbent assay.

The target in assay [2] is T2, recombinant histidine-tagged cynomolgus monkey E-selectin (Sino Biologicals; 190169-C08H) (cynomolgus monkey, UniProt A0A2K5U7H9 22-554).
T2 construct: also called recombinant cynomolgus monkey E-selectin
T2 sequence: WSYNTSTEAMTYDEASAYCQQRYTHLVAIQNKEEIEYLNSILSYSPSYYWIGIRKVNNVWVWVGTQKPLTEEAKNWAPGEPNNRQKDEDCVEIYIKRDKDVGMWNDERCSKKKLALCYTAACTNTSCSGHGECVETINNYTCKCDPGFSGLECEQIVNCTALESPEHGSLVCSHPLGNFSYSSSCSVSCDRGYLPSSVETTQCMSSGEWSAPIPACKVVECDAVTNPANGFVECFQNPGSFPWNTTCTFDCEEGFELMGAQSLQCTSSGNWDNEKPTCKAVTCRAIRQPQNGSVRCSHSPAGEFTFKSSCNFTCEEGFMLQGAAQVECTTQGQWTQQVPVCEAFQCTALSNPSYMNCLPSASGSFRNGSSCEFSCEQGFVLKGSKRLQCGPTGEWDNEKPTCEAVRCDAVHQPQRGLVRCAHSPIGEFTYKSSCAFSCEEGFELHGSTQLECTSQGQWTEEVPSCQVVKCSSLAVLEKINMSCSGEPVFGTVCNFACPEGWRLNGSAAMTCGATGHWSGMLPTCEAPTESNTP
In words: direct binding ELISA, soluble recombinant protein. The protocol: as §1, §2

For assay [3], the target named is T3, human E-selectin extracellular domain with 10 His purification tail (human, UniProt P16581 22-556).
T3 construct: also called soluable human E-selectin extracellular domain; rhE-Selectin
T3 sequence: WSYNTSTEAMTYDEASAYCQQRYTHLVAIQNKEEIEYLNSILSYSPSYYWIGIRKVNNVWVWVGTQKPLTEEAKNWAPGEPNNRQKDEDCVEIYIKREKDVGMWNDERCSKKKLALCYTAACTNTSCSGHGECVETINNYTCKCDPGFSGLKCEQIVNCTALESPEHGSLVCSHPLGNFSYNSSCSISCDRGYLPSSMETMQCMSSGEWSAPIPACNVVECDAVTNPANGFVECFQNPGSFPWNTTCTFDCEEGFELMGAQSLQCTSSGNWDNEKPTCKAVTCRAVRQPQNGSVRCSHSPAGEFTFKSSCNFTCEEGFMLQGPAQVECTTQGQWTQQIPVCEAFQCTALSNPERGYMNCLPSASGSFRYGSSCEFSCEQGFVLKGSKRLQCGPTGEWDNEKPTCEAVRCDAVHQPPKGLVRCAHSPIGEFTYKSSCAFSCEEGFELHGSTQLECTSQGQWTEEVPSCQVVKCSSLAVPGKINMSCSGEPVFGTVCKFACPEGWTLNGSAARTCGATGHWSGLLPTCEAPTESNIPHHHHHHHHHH
The assay can be described thus: SPR, soluble recombinant protein. The protocol: To characterize binding of antibodies to human, cynomolgus monkey, and mouse E-selectin, an antibody was diluted to 0.5 μg/mL in HBS-EP+ and captured by the anti-human IgG immobilized on flow cells 2, 3 and 4 for 30 seconds to 1 minute at a flow rate of 10 μL/minute to achieve a capture level of 70 to 300 RU. Flow cell 1 was used as a reference surface. […] HBS-EP+ buffer cycles collected for each captured antibody were used for double-referencing (Myszka D G. J. Mol. Recognition 1999; 12(5):279-84). At the end of each cycle, the entire anti-IgG surface was regenerated by a 30 second pulse of 3 M MgCl₂ and a 30 second pulse of ionic buffer (1.83 M MgCl₂, 0.92 M Urea, 1.83 M Guanidine HCl, pH 7.4) (Andersson K. Analy. Chem. 1999; 71(13): 2475-81). Kinetic assays were conducted at 25° C. at a collection rate of 10 Hertz (Hz) on a BIAcore™ T200 instrument (GE Healthcare). Rate constants and affinities were determined by fitting the data to a 1:1 binding model in BIAcore™ T200 Evaluation software version 3.0 (GE Healthcare).
For orientation: In SPR one partner is held on a chip, and binding of the other changes the refractive index at the surface.

In assay [4] the target is T2, recombinant histidine-tagged cynomolgus …. In words: direct binding ELISA, further assay. The procedure: as §1, §2

In general, EC50 refers to the concentration giving half of the maximal effect. Broadly, the Kd is the concentration at which binding is half-saturated.

B1: optimized anti-E-selectin antibody 1444 (antibody, human IgG1, kappa, V domains shown)
VH: EVQLVESGGGLVQPGGSLRLSCAASGYAIRSAYMHWVRQAPGKGLEWVARIDPANGNTIYVDSVTGRFTISADNAKNSAYLQMNSLRAEDTAVYYCAMDLYSTSEYWGQGTLVTVSS
VL: DIQMTQSPSSLSASVGDRVTITCKTSQNIERYLNWYQQKPGKAPKLLIYAASSLQSGVPSRFSGSGSGTDFTLTISSLQPEDFATYFCLQDNAWPLTFGQGTKVEIKR
notes: effector-null human IgG1, kappa
Turning to B1, the EC50 in assay [1] was 0.085 to 0.12 nM; in assay [2], 0.071 to 0.093 nM; in assay [4], 0.071 to 0.075 nM. Further, in assay [3], the Kd came out at 68.4 nM.

For the origin of these results see patent US20240076386A1 (Pfizer, published 2024).
